Sequences and labels used below:
B1: MATN2 (parent)
chain: FSLKTFKRKSEVERAVKRMRHLST
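Further: lentivirally expressed fusions sorted by FACS into six bins by GFP to DsRed ratio, PSI derived from sequencing read proportions per bin multiplied by bin number.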

Variants of B1 are the subject of this data set. The experiment in a line: protein stability index of a GFP-peptide fusion (GPS, HEK-293T) (PSI 1-6); higher = more stable. Particulars: c terminus: a fixed tail appended.
Turning to FSLKTFHRKSEVERAVKRMRHLST [K7H], the protein stability index amounted to 2.05.
For FSLKTFDRKSEVERAVKRMRHLST [K7D], the protein stability index turned out to be 2.51.
Take FSLKTFSRKSEVERAVKRMRHLST [K7S]: the protein stability index was found to be 1.69.
With FSLKTFYRKSEVERAVKRMRHLST [K7Y] the figure was 1.77; with FSLKTFWRKSEVERAVKRMRHLST [K7W], 1.9.
The figure for FSLKTFLRKSEVERAVKRMRHLST [K7L] is 1.15.
Regarding FSLKTFRRKSEVERAVKRMRHLST [K7R], the protein stability index is 2.45.
The figure for FSLKTFNRKSEVERAVKRMRHLST [K7N] is 2.76; for FSLKTFVRKSEVERAVKRMRHLST [K7V] it is 2.91; for FSLKTFTRKSEVERAVKRMRHLST [K7T] it is 2.31.
With FSLKTFCRKSEVERAVKRMRHLST [K7C] the figure was 1.63; with FSLKTFFRKSEVERAVKRMRHLST [K7F], 1.83; with FSLKTFIRKSEVERAVKRMRHLST [K7I], 1.31.
Regarding FSLKTFGRKSEVERAVKRMRHLST [K7G], the protein stability index was 2.46.
As for FSLKTFPRKSEVERAVKRMRHLST [K7P], the protein stability index was 2.05.
For FSLKTFMRKSEVERAVKRMRHLST [K7M], the protein stability index amounted to 2.66.
With FSLKTFARKSEVERAVKRMRHLST [K7A] the figure was 1.78.
With FSLKTFQRKSEVERAVKRMRHLST [K7Q] the figure was 1.97; with FTLKTFKRKSEVERAVKRMRHLST [S2T], 1.99; with FYLKTFKRKSEVERAVKRMRHLST [S2Y], 1.82.
The figure for FRLKTFKRKSEVERAVKRMRHLST [S2R] is 2.36; for FLLKTFKRKSEVERAVKRMRHLST [S2L] it is 1.55.
As for FCLKTFKRKSEVERAVKRMRHLST [S2C], the protein stability index came to 1.5.
The figure for FALKTFKRKSEVERAVKRMRHLST [S2A] is 1.8; for FQLKTFKRKSEVERAVKRMRHLST [S2Q] it is 3.07; for FPLKTFKRKSEVERAVKRMRHLST [S2P] it is 2.42.
With FGLKTFKRKSEVERAVKRMRHLST [S2G], the protein stability index was found to be 3.21.
The figure for FVLKTFKRKSEVERAVKRMRHLST [S2V] is 3.07.
With FNLKTFKRKSEVERAVKRMRHLST [S2N] the figure was 2.84; with FWLKTFKRKSEVERAVKRMRHLST [S2W], 1.39.
Take FDLKTFKRKSEVERAVKRMRHLST [S2D]: the protein stability index worked out at 2.77.
Regarding FELKTFKRKSEVERAVKRMRHLST [S2E], the protein stability index is 2.51.
As to FKLKTFKRKSEVERAVKRMRHLST [S2K], the protein stability index was 1.95.
On to FMLKTFKRKSEVERAVKRMRHLST [S2M], for which the protein stability index stood at 2.5.
Turning to FHLKTFKRKSEVERAVKRMRHLST [S2H], the protein stability index was 1.99.
For FSCKTFKRKSEVERAVKRMRHLST [L3C], the protein stability index was 1.93.
With FSMKTFKRKSEVERAVKRMRHLST [L3M] the figure was 2.25; with FSNKTFKRKSEVERAVKRMRHLST [L3N], 1.98; with FSSKTFKRKSEVERAVKRMRHLST [L3S], 2.45.
The figure for FSVKTFKRKSEVERAVKRMRHLST [L3V] is 2.11; for FSYKTFKRKSEVERAVKRMRHLST [L3Y] it is 2.15.
The figure for FSFKTFKRKSEVERAVKRMRHLST [L3F] is 2.23; for FSIKTFKRKSEVERAVKRMRHLST [L3I] it is 2.56; for FSDKTFKRKSEVERAVKRMRHLST [L3D] it is 2.
Turning to FSRKTFKRKSEVERAVKRMRHLST [L3R], the protein stability index is 3.
With FSAKTFKRKSEVERAVKRMRHLST [L3A], the protein stability index came to 2.94.
The figure for FSQKTFKRKSEVERAVKRMRHLST [L3Q] is 2.23.
The figure for FSPKTFKRKSEVERAVKRMRHLST [L3P] is 2.13; for FSGKTFKRKSEVERAVKRMRHLST [L3G] it is 2.91; for FSHKTFKRKSEVERAVKRMRHLST [L3H] it is 2.78.
For FSEKTFKRKSEVERAVKRMRHLST [L3E], the protein stability index was found to be 3.08.
The figure for FSWKTFKRKSEVERAVKRMRHLST [L3W] is 3.27; for FSTKTFKRKSEVERAVKRMRHLST [L3T] it is 2.3; for FSKKTFKRKSEVERAVKRMRHLST [L3K] it is 3.54.
Consider FSLKTFKKKSEVERAVKRMRHLST [R8K], for which the protein stability index amounted to 2.33.
On to FSLKTFKCKSEVERAVKRMRHLST [R8C], for which the protein stability index is 2.27.
FSLKTFKQKSEVERAVKRMRHLST [R8Q]: the protein stability index amounted to 2.49.
The figure for FSLKTFKLKSEVERAVKRMRHLST [R8L] is 2.48; for FSLKTFKVKSEVERAVKRMRHLST [R8V] it is 2.15.
The figure for FSLKTFKSKSEVERAVKRMRHLST [R8S] is 1.93.
Turning to FSLKTFKDKSEVERAVKRMRHLST [R8D], the protein stability index came to 2.85.
The figure for FSLKTFKTKSEVERAVKRMRHLST [R8T] is 2.47; for FSLKTFKHKSEVERAVKRMRHLST [R8H] it is 3.3.
Consider FSLKTFKPKSEVERAVKRMRHLST [R8P], for which the protein stability index was 2.7.
For the variant FSLKTFKFKSEVERAVKRMRHLST [R8F], the protein stability index was determined as 1.43.
The figure for FSLKTFKYKSEVERAVKRMRHLST [R8Y] is 2.29; for FSLKTFKIKSEVERAVKRMRHLST [R8I] it is 2.12; for FSLKTFKNKSEVERAVKRMRHLST [R8N] it is 2.17.
The figure for FSLKTFKGKSEVERAVKRMRHLST [R8G] is 2.43.
With FSLKTFKMKSEVERAVKRMRHLST [R8M] the figure was 3.23; with FSLKGFKRKSEVERAVKRMRHLST [T5G], 2.71.
On to FSLKQFKRKSEVERAVKRMRHLST [T5Q], for which the protein stability index was found to be 3.18.
The figure for FSLKRFKRKSEVERAVKRMRHLST [T5R] is 2.48; for FSLKFFKRKSEVERAVKRMRHLST [T5F] it is 2.56.
Turning to FSLKSFKRKSEVERAVKRMRHLST [T5S], the protein stability index worked out at 2.4.
Consider FSLKEFKRKSEVERAVKRMRHLST [T5E], for which the protein stability index was 1.47.
The figure for FSLKPFKRKSEVERAVKRMRHLST [T5P] is 2.11; for FSLKHFKRKSEVERAVKRMRHLST [T5H] it is 1.91.
The figure for FSLKLFKRKSEVERAVKRMRHLST [T5L] is 1.58; for FSLKDFKRKSEVERAVKRMRHLST [T5D] it is 2.75; for FSLKYFKRKSEVERAVKRMRHLST [T5Y] it is 1.89.
With FSLKAFKRKSEVERAVKRMRHLST [T5A] the figure was 1.94; with FSLKMFKRKSEVERAVKRMRHLST [T5M], 2.91.
On to FSLKIFKRKSEVERAVKRMRHLST [T5I], for which the protein stability index was 2.29.
With FSLKVFKRKSEVERAVKRMRHLST [T5V] the figure was 1.8; with FSLKKFKRKSEVERAVKRMRHLST [T5K], 2.48; with FSLFTFKRKSEVERAVKRMRHLST [K4F], 1.85.
With FSLGTFKRKSEVERAVKRMRHLST [K4G] the figure was 2.28.
The figure for FSLPTFKRKSEVERAVKRMRHLST [K4P] is 2.58; for FSLATFKRKSEVERAVKRMRHLST [K4A] it is 1.69; for FSLETFKRKSEVERAVKRMRHLST [K4E] it is 1.8.
For the variant FSLTTFKRKSEVERAVKRMRHLST [K4T], the protein stability index worked out at 2.18.
The figure for FSLITFKRKSEVERAVKRMRHLST [K4I] is 2.21; for FSLQTFKRKSEVERAVKRMRHLST [K4Q] it is 2.45.

The values above are taken from the supplement of paper PMC10567573.
